In patent US20200017592A1 (Regeneron, published 2020):

T1: human IL-36R extracellular domain expressed with a C-terminal mouse IgG2a Fc tag (hIL-36R-mFc) (human; mouse, UniProt Q9HB29 20-337)
T1 construct: not shown: mouse IgG2a Fc, E98-K330
T1 sequence (looked up): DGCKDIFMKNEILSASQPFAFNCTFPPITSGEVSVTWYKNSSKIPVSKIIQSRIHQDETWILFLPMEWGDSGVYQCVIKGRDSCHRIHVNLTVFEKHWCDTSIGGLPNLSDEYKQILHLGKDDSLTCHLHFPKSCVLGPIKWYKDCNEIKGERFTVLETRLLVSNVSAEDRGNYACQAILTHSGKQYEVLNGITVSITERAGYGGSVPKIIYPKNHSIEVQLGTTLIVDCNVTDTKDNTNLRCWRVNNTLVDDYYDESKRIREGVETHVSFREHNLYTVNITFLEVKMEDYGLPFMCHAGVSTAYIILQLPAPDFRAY

T2: in-line fusion protein of human IL-36R extracellular domain and IL1RAcP extracellular domain expressed with … (human; mouse, UniProt Q9HB29 20-337; Q9NPH3 21-359, limits assumed)
T2 construct: not shown: mouse IgG2a Fc
T2 sequence (looked up): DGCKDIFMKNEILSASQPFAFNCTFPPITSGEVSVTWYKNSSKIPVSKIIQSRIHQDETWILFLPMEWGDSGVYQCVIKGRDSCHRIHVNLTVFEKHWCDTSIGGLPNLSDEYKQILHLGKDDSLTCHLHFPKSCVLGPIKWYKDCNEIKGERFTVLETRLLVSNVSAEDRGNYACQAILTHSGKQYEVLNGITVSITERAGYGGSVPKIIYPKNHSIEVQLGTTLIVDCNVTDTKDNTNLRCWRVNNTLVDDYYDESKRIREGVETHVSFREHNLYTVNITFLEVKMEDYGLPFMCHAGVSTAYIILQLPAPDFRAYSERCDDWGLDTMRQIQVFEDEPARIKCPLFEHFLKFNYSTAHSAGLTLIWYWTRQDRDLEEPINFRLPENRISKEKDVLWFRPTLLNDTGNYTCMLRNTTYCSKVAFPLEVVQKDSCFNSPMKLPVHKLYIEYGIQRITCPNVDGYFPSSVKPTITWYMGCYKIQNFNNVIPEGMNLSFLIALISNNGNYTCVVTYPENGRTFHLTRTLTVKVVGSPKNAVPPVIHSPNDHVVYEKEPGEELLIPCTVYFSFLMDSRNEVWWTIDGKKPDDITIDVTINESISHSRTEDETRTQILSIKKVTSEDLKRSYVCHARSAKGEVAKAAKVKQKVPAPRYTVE


Experiments:
[1] = biological target: T3, human IL-36R extracellular domain expressed with a C-terminal myc-myc-hexahistidine tag (hIL-36R-MMH) (human, UniProt Q9HB29 20-337); assay: SPR Biacore T200, mAb captured on anti-hFc, 25C, PBS-T pH 7.4 running buffer
T3 construct: also called Human IL-36R-MMH; REGN2105
T3 sequence (Q9HB29 other isoform, or with tags, fused parts or gaps limits assumed): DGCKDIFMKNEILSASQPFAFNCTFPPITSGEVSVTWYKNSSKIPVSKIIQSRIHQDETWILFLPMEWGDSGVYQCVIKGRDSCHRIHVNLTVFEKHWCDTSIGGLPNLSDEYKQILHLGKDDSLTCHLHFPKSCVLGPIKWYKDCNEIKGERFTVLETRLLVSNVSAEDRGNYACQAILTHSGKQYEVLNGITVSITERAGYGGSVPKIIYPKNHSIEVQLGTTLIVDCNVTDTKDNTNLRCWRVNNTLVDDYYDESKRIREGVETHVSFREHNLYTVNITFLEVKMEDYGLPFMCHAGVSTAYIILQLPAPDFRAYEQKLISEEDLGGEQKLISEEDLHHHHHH
Protocol: (§1) Additional binding experiments were performed to determine the effect of pH on the rate of dissociation of IL-36R bound to purified anti-IL-36R antibodies, which was determined using a real-time surface plasmon resonance biosensor using a Biacore T200 instrument. The Biacore sensor surface was first derivatized by amine coupling with a monoclonal mouse anti-human Fc antibody (GE, # BR-1008-39) to capture anti-IL-36R antibodies. […] Different concentrations of hIL-36R-MMH and mfIL-36R-MMH prepared in PBS-T, pH7.4 buffer (ranging from 100 nM to 11.11 nM, 3-fold dilutions) were injected over the anti-IL-36R antibody captured surface for 4 minutes at a flow rate of 50 μL/minute and their dissociation in two running buffers, PBS-T, pH7.4 and PBS-T, pH 6.0, was monitored for 10 minutes. All of these binding kinetics experiments were performed at 25° C. and 37° C. Kinetic dissociation constant (kd) were determined by fitting the real-time sensorgrams to a 1:1 binding model using Scrubber 2.0c curve fitting software. Binding dissociative half-lives (t_{1/2}) were calculated from kd as: […]

[2] = biological target: T1, human IL-36R extracellular domain …; assay: SPR Biacore 4000, mAb captured on anti-hFc, 25C
Protocol: (§2) Equilibrium dissociation constants (KD values) for IL-36R binding to purified anti-IL-36R antibodies were determined using a real-time surface plasmon resonance biosensor using a Biacore 4000 instrument. The Biacore sensor surface was first derivatized by amine coupling with a monoclonal mouse anti-human Fc antibody (GE, # BR-1008-39) to capture anti-IL-36R monoclonal antibodies. All binding studies were performed in 0.01 M Hepes pH 7.4, 0.15 M NaCl, 3 mM EDTA, and 0.05% v/v Surfactant Tween-20 (HBS-ET running buffer) at 25° C. and 37° C. Different concentrations of IL-36R reagents, human IL-36R extracellular domain expressed with a C-terminal myc-myc-hexahistidine tag (hIL-36R-MMH), Macaca fascicularis IL-36R extracellular domain expressed with a C-terminal myc-myc-hexahistidine tag (mfIL-36R-MMH: mROR1 signal sequence (M1-A29). Macaca fascicularis IL36R_ecto domain (D20-A336).mycmycHis6), human IL-36R extracellular domain expressed with a C-terminal mouse IgG2a Fc tag (hIL-36R-mFc: mROR1 signal sequence (M1-A29)-human IL36R (D20-Y337)-mouse IgG2aFc (E98-K330)) or an in-line fusion protein of human IL-36R extracellular domain and IL1RAcP extracellular domain expressed with mouse IgG2a Fc tag (hIL-36R-Trap-mFc: mROR1 signal sequence (M1-A29)-human IL36R ecto domain (D20-Y337)-human IL1RacP ecto domain(S21-E359)-mouse IgG2aFc) in HBS-ET running buffer (ranging from 100 nM to 3.7 nM, 3-fold dilutions) were injected over the anti-IL-36R antibody captured surface for 4 minutes at a flow rate of 30 μL/minute and their dissociation in HBS-ET running buffer was monitored for 10 minutes. Kinetic association rate constant (kₐ) and dissociation rate constant (kd) were determined by fitting the real-time sensorgrams to a 1:1 binding model using Scrubber 2.0c curve fitting software. Binding dissociation equilibrium constants (KD) and dissociative half-lives (t_{1/2}) were calculated from the kinetic rate constants as: […]

[3] = biological target: T2, in-line fusion protein of human IL-36R …; assay: SPR Biacore 4000, mAb captured on anti-hFc, 25C
Protocol: as §2

[4] = biological target: T1, human IL-36R extracellular domain …; assay: SPR Biacore 4000, mAb captured on anti-hFc, 37C
Protocol: as §2

[5] = biological target: T2, in-line fusion protein of human IL-36R …; assay: SPR Biacore 4000, mAb captured on anti-hFc, 37C
Protocol: as §2

[6] = biological target: T3, human IL-36R extracellular domain …; assay: SPR Biacore T200, mAb captured on anti-hFc, 37C, PBS-T pH 7.4 running buffer
Protocol: as §1

[7] = biological target: T3, human IL-36R extracellular domain …; assay: SPR Biacore T200, mAb captured on anti-hFc, 25C, PBS-T pH 6.0 running buffer
Protocol: as §1

[8] = biological target: T3, human IL-36R extracellular domain …; assay: SPR Biacore T200, mAb captured on anti-hFc, 37C, PBS-T pH 6.0 running buffer
Protocol: as §1

100 nM Human IL-36R-MMH Bound (RU) [1] [RU] | koff [1] [s⁻¹] | t1/2 [1] [min] | 100 nM hIL-36R-mFc Bound (RU) [2] [RU] | Kd [2] [nM] | koff [2] [s⁻¹] | kon [2] [M⁻¹ s⁻¹] | t1/2 [2] [min] | 100 nM hIL-36R-Trap-mFc Bound (RU) [3] [RU] | Kd [3] [nM] | koff [3] [s⁻¹] | kon [3] [M⁻¹ s⁻¹] | t1/2 [3] [min] | 100 nM hIL-36R-mFc Bound (RU) [4] [RU] | Kd [4] [nM] | koff [4] [s⁻¹] | kon [4] [M⁻¹ s⁻¹] | t1/2 [4] [min] | 100 nM hIL-36R-Trap-mFc Bound (RU) [5] [RU] | Kd [5] [nM] | Binder | also measured
84 | 0.00193 | 6 | 150 | 0.359 | 0.000203 | 564000 | 57 | 188 | 0.458 | 0.000228 | 498000 | 51 | 186 | 0.767 | 0.000456 | 594000 | 25 | 229 | 1.06 | H4H14699P2 (antibody, human IgG4 S228P, kappa, V domains shown, Fully human anti-IL-36R antibody) VH: EVQLVESGGGLVQPGRSLRLSCAASGFTFDDYAIHWVRQAPGKGLEWVSVISWNSDIIGYADSVKGRFTVSRDNAKNSLYLQMNSLRTEDTALYYCAKGYNWNFFDYWGQGTLVTVSS VL: EIVLTQSPATLSLSPGERATLSCRASQSVSSYLAWYQQKPGQAPRLLIYNAANRATDIPARFSGSGSGTDFTLTISSLEPEDFAVYYCQQRSNWPLTFGGGTKVEIKR | koff [5]: 0.000513 s⁻¹; kon [5]: 484000 M⁻¹ s⁻¹; t1/2 [5]: 23 min; 100 nM hIL-36R-MMH Bound (RU) [6]: 96 RU; koff [6]: 0.00415 s⁻¹; t1/2 [6]: 3 min; 100 nM Human IL-36R-MMH Bound (RU) [7]: 79 RU; koff [7]: 0.00293 s⁻¹; t1/2 [7]: 4 min; 100 nM hIL-36R-MMH Bound (RU) [8]: 83 RU; koff [8]: 0.00581 s⁻¹; t1/2 [8]: 2 min
119 | 0.000616 | 19 | 163 | 0.23 | 0.000132 | 575000 | 87 | 205 | 0.232 | 0.00011 | 477000 | 105 | 207 | 0.449 | 0.000266 | 593000 | 43 | 264 | 0.551 | H4H14706P2 (antibody, human IgG4 S228P, kappa, V domains shown, Fully human anti-IL-36R antibody) VH: EVQLVESGGGLVQPGRSLRLSCTASGFTFDDYAIHWVRQSPGKGLEWVSVISWNSDVIGYADSVKGRFTISRDNAKNSLYLQMNSLRAEDTALYYCAKGYNWNFFDYWGQGTLVTVSS VL: EIVLTQSPATLSLSPGERATLSCRASQSVSSYLAWYQQKPGQAPRLLIYNAANRATDIPARFSGSGSGTDFTLTISSLEPEDFAVYYCQQRSNWPLTFGGGTKVEIKR | koff [5]: 0.000271 s⁻¹; kon [5]: 491000 M⁻¹ s⁻¹; t1/2 [5]: 43 min; 100 nM hIL-36R-MMH Bound (RU) [6]: 140 RU; koff [6]: 0.00131 s⁻¹; t1/2 [6]: 9 min; 100 nM Human IL-36R-MMH Bound (RU) [7]: 109 RU; koff [7]: 0.000927 s⁻¹; t1/2 [7]: 12 min; 100 nM hIL-36R-MMH Bound (RU) [8]: 132 RU; koff [8]: 0.00233 s⁻¹; t1/2 [8]: 5 min
128 | 0.000795 | 15 | 128 | 0.233 | 0.00012 | 517000 | 96 | 157 | 0.283 | 0.000125 | 442000 | 92 | 174 | 0.39 | 0.000209 | 535000 | 55 | 216 | 0.555 | H4H14700P2 (antibody, human IgG4 S228P, kappa, V domains shown, Fully human anti-IL-36R antibody) VH: EVQLVESGGGLVQPGRSLRLSCAASGFTFDDYAMHWVRQTPGKGLEWVSVISWNSDVIAYSDSVKGRFTISRDNAKNSLYLQMNSLGTEDTALYYCAKGHNWNFFDYWGQGTLVTVSS VL: EIVLTQSPATLSLSPGERATLSCRASQSVSSYLAWYQQKPGQAPRLLIYNVANRATDIPARFSGSGSGTDFTLTISGLEPEDFAVYFCQQRSNWPLTFGGGTKVEIKR | koff [5]: 0.000253 s⁻¹; kon [5]: 455000 M⁻¹ s⁻¹; t1/2 [5]: 46 min; 100 nM hIL-36R-MMH Bound (RU) [6]: 153 RU; koff [6]: 0.00169 s⁻¹; t1/2 [6]: 7 min; 100 nM Human IL-36R-MMH Bound (RU) [7]: 120 RU; koff [7]: 0.00172 s⁻¹; t1/2 [7]: 7 min; 100 nM hIL-36R-MMH Bound (RU) [8]: 144 RU; koff [8]: 0.0035 s⁻¹; t1/2 [8]: 3 min
